Results: the RNAGym collection of RNA variant scans (doi:10.7554/elife.80360)

B1: HDV Ribozyme (parent)
chain: GGCCGGCAUGGUCCCAGCCUCCUCGCUGGCGCCGGCUGGGCAACAUUCCGAGGGGACCGUCCCCUCGGUAAUGGCGAAUGGGACCCA

Variants of: B1
Experiment: self-cleavage, relative activity (ratio to wild type); higher = more cleavage; co-transcriptional

Variant | self-cleavage
GACCGGCAUGGUGCCAGCCUCCUCGCUGGCGCCGGCUGGGCAACAUUCCGAGGGGACCGUCCCCUCGGUAAUGGCGAAUGGGACCCA [G2A C13G] | 0.0282
GGCAGGCAUGGUCCCAGCCUCCUCGCUGGCGCCGGCUGGGCAACAUUUCGAGGGGACCGUCCCCUCGGUAAUGGCGAAUGGGACCCA [C4A C48U] | 0.151
GGCCGGCAUGGUCCCAGCCUCCUCGCUGGCGCCGGCUGGGCAACUUUCCGAGGGGACCGUCCCCUCGGUAAUGGCGAAUGGGACCCC [A45U A87C] | 0.783
GGCCGGCAUGGUCCCAGCCUCCUCGCUGGCUCCGGCUGGGCAACAUUCUGAGGGGACCGUCCCCUCGGUAAUGGCGAAUGGGACCCA [G31U C49U] | 0.302
GGCCGGCAUGGGCCCAGCCUCCUCGCUGGCGCCGGCUGGGCGACAUUCCGAGGGGACCGUCCCCUCGGUAAUGGCGAAUGGGACCCA [U12G A42G] | 0.369
GGCCGGCAUGGUCCAAGCCUCCUCGCUGGCGCCGGCUGGGCAACAUUCCGAGGGGACCGUCCCCUCGUUAAUGGCGAAUGGGACCCA [C15A G68U] | 0.309
GGCCGGUAUGGUCCCAGCCUCCUCGCUGGCGCCGGCUGGGCAACAUUCCGAGGGGACCUUCCCCUCGGUAAUGGCGAAUGGGACCCA [C7U G59U] | 0.812
GGCCGGCAUGGUCCCAGCCUCCUCGCUGGCGCGGGCUGGGCAACAUUCCGACGGGACCGUCCCCUCGGUAAUGGCGAAUGGGACCCA [C33G G52C] | 0.128
GGCCGGCAUGGUCCCAGCCUCCUCGCUGGCGCCGGCUGGGCAACAUUCCGAGGGGACCGUCCCCUCGGUAAUGGCGAAUGAGAUCCA [G81A C84U] | 0.327
GGCCGGCAUGGCCCCAGCCUCCUCGCUGGCGCCGGCUGGGCAACAUUCCGAGGGGACCGGCCCCUCGGUAAUGGCGAAUGGGACCCA [U12C U60G] | 0.399
GGCCGGCAUGGUCCCAGCCUCCUCGCUGGCGCCGGCUGGGCGACAUUCCGAGGGGACCGUCCCCUCGGUAAUGGCGACUGGGACCCA [A42G A78C] | 0.107
GGCCGGCAUGGUCCCAGCCUCCUCCCUGGCGCCGGCUGGGCAACAUUCCGAGGGGACCGUCCCCUGGGUAAUGGCGAAUGGGACCCA [G25C C66G] | 0.0978
GGCCGGCAUGAUCCCAGCCUCCUCGCUGGCGCCGGCUGGGCAACAUUCCGAGGGGACCGUCCCCUCGGUAAUGGAGAAUGGGACCCA [G11A C75A] | 0
GGCCGGCAUGGUCCCAGCCUCCUCGCUGGCGCCGUCUGGGCAACAUUCCGAGGGGACCGGCCCCUCGGUAAUGGCGAAUGGGACCCA [G35U U60G] | 0.285
GGCCGGCAUGGUCCCAGCCUCCUCGCUGGCGCCGGCUCGGCAACAUUCCGAGGGGACCGUCCCCUCGGUAAUCGCGAAUGGGACCCA [G38C G73C] | 0.284
GGCCGGCAUGGUCCCAGCCUCCUCGCUAGCGCCGGCUGGGCAACAUCCCGAGGGGACCGUCCCCUCGGUAAUGGCGAAUGGGACCCA [G28A U47C] | 0.0739
GGCCGGCAUGGUCCCAACCUCCUCGCUGGCGCCGGCUGGGCAACAUUCCGAGGGGACCGUCCCCUCGGUAAUGGCGAAUGGGACCUA [G17A C86U] | 0.885
GGCCGGCGUGUUCCCAGCCUCCUCGCUGGCGCCGGCUGGGCAACAUUCCGAGGGGACCGUCCCCUCGGUAAUGGCGAAUGGGACCCA [A8G G11U] | 0.0739
GGCCGGCAUGGUCCCAGCCUCCUCGCUGGCGCCGGCUGGGCAACAUUGCGACGGGACCGUCCCCUCGGUAAUGGCGAAUGGGACCCA [C48G G52C] | 0.762
GGCCGGCAGGGUCUCAGCCUCCUCGCUGGCGCCGGCUGGGCAACAUUCCGAGGGGACCGUCCCCUCGGUAAUGGCGAAUGGGACCCA [U9G C14U] | 1.08
GGCCGGCAUGGUACCAUCCUCCUCGCUGGCGCCGGCUGGGCAACAUUCCGAGGGGACCGUCCCCUCGGUAAUGGCGAAUGGGACCCA [C13A G17U] | 0.169
GCCGGGCAUGGUCCCAGCCUCCUCGCUGGCGCCGGCUGGGCAACAUUCCGAGGGGACCGUCCCCUCGGUAAUGGCGAAUGGGACCCA [G2C C4G] | 0.794

Variant | self-cleavage
GGCCGGCAUGGACCCAACCUCCUCGCUGGCGCCGGCUGGGCAACAUUCCGAGGGGACCGUCCCCUCGGUAAUGGCGAAUGGGACCCA [U12A G17A] | 0.19
GGCGGGCAUGGUCCCAGCCUCCUCGCUGGCGCCGGCUGGGCAACAUUCCGAGAGGACCGUCCCCUCGGUAAUGGCGAAUGGGACCCA [C4G G53A] | 0.277
GGCCGGCAUGGUCCCAGCCUCCUCGCUGGCGCCGUCUGGGCAACAUUCCGAGGGGACCGUCCCCUCAGUAAUGGCGAAUGGGACCCA [G35U G67A] | 0.506
GGCCGGCAUGGUCCCAGCCGCCUCUCUGGCGCCGGCUGGGCAACAUUCCGAGGGGACCGUCCCCUCGGUAAUGGCGAAUGGGACCCA [U20G G25U] | 0.166
GGCCGGCAUGGUCCCAGCCUCCUCCCUGGCGCCGGCUGGGCAACAUUCCGAGGGGACCGUCCCCUCGGUAAGGGCGAAUGGGACCCA [G25C U72G] | 0.0639
GGCCGGCAUGGUCCCAGCCUCCCCGGUGGCGCCGGCUGGGCAACAUUCCGAGGGGACCGUCCCCUCGGUAAUGGCGAAUGGGACCCA [U23C C26G] | 1.05
GGCCGGCAUGGUCCCAGCCUCUUCGCUGGCGCCGGCUGGGCAACAUUCCGAGGGGACCGUCUCCUCGGUAAUGGCGAAUGGGACCCA [C22U C62U] | 0.842
GGCCGGCAUGGUCCCAGACUCCUCGCUGGCGCCGGAUGGGCAACAUUCCGAGGGGACCGUCCCCUCGGUAAUGGCGAAUGGGACCCA [C18A C36A] | 0.0361
GGCCGGCAUGGUCCCAGCCUCCUCGCUGGCUCCGGCUGCGCAACAUUCCGAGGGGACCGUCCCCUCGGUAAUGGCGAAUGGGACCCA [G31U G39C] | 0.166
GGCCGGCAUGGUCCCAGCCUCCUCGCUGGCGCCGGCUGGGCAACAUUCCGAGGCGACCUUCCCCUCGGUAAUGGCGAAUGGGACCCA [G54C G59U] | 1.15
GGACGGCAUGGUCCCAGCCUCCUCGCUGGCGCCGGCUGGGCAACAUUCCGAGGGGACCGUCCCAUCGGUAAUGGCGAAUGGGACCCA [C3A C64A] | 0.564
GGCCGGCAUGGUCCCAGCCUCCUCGCUGGCGCCGGCUGGGCAACGUUCCGAGGGGACCGUCCCCUCGGUAAUGGCGAAUGCGACCCA [A45G G81C] | 0.147
GGCCGGCAUGGUCCCAACCUCCUCGCUGGCGCCGGCUGGGCAACAUUCCGAGGGGACCGUCCCCUUGGUAAUGGCGAAUGGGACCCA [G17A C66U] | 0.607
GGCCGGCAUGGUCCCAGCCUCCUCGCUGGCGCCGGCUGGGCAACAUUCCGAGGGUACCCUCCCCUCGGUAAUGGCGAAUGGGACCCA [G55U G59C] | 1.02
GGCCGGCAUGGUCCCAGCCUCCUCGCUGGCGCCGGCUGGGCUACAUUCCGAGGGGACCGUCCCGUCGGUAAUGGCGAAUGGGACCCA [A42U C64G] | 0.574
GGCCGGCAUGGUCCCAGCCUCCUCGCUGGCGCCGGUUGGGCAACAUUCCGAGGCGACCGUCCCCUCGGUAAUGGCGAAUGGGACCCA [C36U G54C] | 0.872
GGCCGGCAUGGUCCCGGCCUUCUCGCUGGCGCCGGCUGGGCAACAUUCCGAGGGGACCGUCCCCUCGGUAAUGGCGAAUGGGACCCA [A16G C21U] | 0.0615
GGCCGGCAUGGUCCCAGCCUCCUCGCUGGCGCCGGCUGGGCAACAUUCCGAAGGUACCGUCCCCUCGGUAAUGGCGAAUGGGACCCA [G52A G55U] | 0.934
GGCCGGCAUGGUCCCAGCCUCCUCGCUGGCGCCGGCUUGGCAACAUUCCGAGGGGACCGUCCCCUCGGUAAAGGCGAAUGGGACCCA [G38U U72A] | 0.0378
GGCCGGCAUGGUGCCAGCCUCCUCGCUGGCGCCGGCUGGGCAACAUUCCGAGGGGACCGUCCCCCCGGUAAUGGCGAAUGGGACCCA [C13G U65C] | 0.095
GGCCGGCAUGGUCCCAGCCUCCUCGCUGGCGCCGGCUGGGCAACCUUCCGAGCGGACCGUCCCCUCGGUAAUGGCGAAUGGGACCCA [A45C G53C] | 0.755
GGCCGGCAUGGUCCCAGCCUCCUCGCUGGCGCCGGCUGGGCAACAUUCCGAGAAGACCGUCCCCUCGGUAAUGGCGAAUGGGACCCA [G53A G54A] | 0.896

Variant | self-cleavage
GGCCGGCAUGGUCCCAGCCUCCUCGUUGGCGCCGGCUGGGCAACAUUCCGAGGGGACCGUCCCCUCGGUAAUAGCGAAUGGGACCCA [C26U G73A] | 0.747
GGCCGGCAUGGUCCCAACCUCCUCGCUGGCGCCGGCUGGGCAACAUUCCGAGGGGACCGUCCCCUCGGUAAUGGCGGAUGGGACCCA [G17A A77G] | 0.295
GGCCGGCAUGGUCCCAGCCUCCUCGCUGGCGCCGGCUGGGCAACAUUCCGAGAGGACCGUCCCCUCGGUAAUGGCGACUGGGACCCA [G53A A78C] | 0.104
GGCCGGCAUGGUCCCAGCCUCCUCGCUGGGGCCGGCUGGGCAACAUUCCGAGGGGACCGUCCCCUCGGUAAUGGUGAAUGGGACCCA [C30G C75U] | 0.0755
GGCCGGCAUGGUCCCAGCCUCCUCGCUGGCGCCGGCUGGGCAACAUUCCGAGGGGACCGUCCCCUCCGAAAUGGCGAAUGGGACCCA [G67C U69A] | 0.96
GGCCGGCAUGGUCCCAGCCUCCUCGCUCGCGCCGGCUGGGCAACAUUCGGAGGGGACCGUCCCCUCGGUAAUGGCGAAUGGGACCCA [G28C C49G] | 0.119
GGCCGGCAUGGUCCCAGCCUCCUCGCUGGCGCCGGCGGGGCAACAUUCCGAGGGGACCGUCCCCUCGGUAAUGGCGAAUGGAACCCA [U37G G82A] | 0.158
GGCCGGCAUGGUCCCAGCCUCCUCGCUGGCGCCGGCUGUGCACCAUUCCGAGGGGACCGUCCCCUCGGUAAUGGCGAAUGGGACCCA [G39U A43C] | 0.237
GGCCGGCAUGGUCCCAGCCUCCUCGAUGGCGCCGGCUGGGCAACAUUCCGAGGGGACCGUCCCCUCGGUAAUGGUGAAUGGGACCCA [C26A C75U] | 0.203
GGCCGGCAUGGUCCCAGCCUCCUCGCUGGCGCAGGCUGGGCAACAUUCCGAGGGGACCGUCCCCUCGAUAAUGGCGAAUGGGACCCA [C33A G68A] | 0.157
GGCCGACAUGGUCCCAGCCUCCUCGCUGGCGCCGGCUGGGCAACAUUCCGAGGGGACCGUCCCCUCGGUAAUGGCGAAUGGGACCGA [G6A C86G] | 0.802
GGCCGGCAUGGUCCCAGCCUCCUCGCUGGCGCCGGCUGGGCAACAUGCCGAGGGGACCGUCCCCUCGGUAAUGGCGAAUGGGACUCA [U47G C85U] | 1.21
GGCCGGCAUGGUCCCAGCCUCCUCGCUGGCGCCGGCUGGGCAACAUUCCGCGGGGACCGUCCCCUCGGUAAUGGCGAAUGGGACCAA [A51C C86A] | 0.872
GGCCGGCAUGGACCCAGCCUCCUCGCUGGCGCCGGCUGGGCAACAUUCCGAGGGGACCGUCCCCUCGGUAAUGGCGAAUGGGACCCA [U12A] | 0.309
GGCCGGCAUGGUCCCAGCCUCCUCGCUGGCGCCGGCUGGGCAACAGUCCGAUGGGACCGUCCCCUCGGUAAUGGCGAAUGGGACCCA [U46G G52U] | 0.237
GGCCCGCAUGGACCCAGCCUCCUCGCUGGCGCCGGCUGGGCAACAUUCCGAGGGGACCGUCCCCUCGGUAAUGGCGAAUGGGACCCA [G5C U12A] | 0.0791
GGCCGGCAUGGUCCCAGCCUCCUCGCUGGCGCCGGCUGGGCAACAUUCCGAGGGGACCGUCCCCUCGGUAAUAGCGAAUGGGACGCA [G73A C85G] | 0.703
GGCCGGCAUUGUCCCAGCCUCCUCGCUGGCGCCGGCUGGGCAACAUUCCGAGGGGACCGUCCCCUCGGUAAUGGCAAAUGGGACCCA [G10U G76A] | 0.652
GGCCGGCAUGGUCCCAGCCUCCUCGCUGGCGCCGGCUGGGCAACAUUCCGAGGGGACCGACCCCUCGGCAAUGGCGAAUGGGACCCA [U60A U69C] | 1.08
GGCCGGCAUGGUCCCAGCCUUCUCGCUGGCGCCGGCUGGGCAACAUUCCGAGGCGACCGUCCCCUCGGUAAUGGCGAAUGGGACCCA [C21U G54C] | 0.292
